Laboratory results: patent US20110065198A1 (NEXIGEN, published 2011)

How the values were obtained:
[1] = target: T1, glutathione-S-transferase (GST) alone, not fused to Vif (UniProt P08515 1-218 = GST); assay: GST pull-down, 35S in vitro translated protein, SDS-PAGE autoradiography, FIG. 3b lane 12
[2] = target: T1, glutathione-S-transferase (GST) alone, …; assay: GST pull-down, 35S in vitro translated protein, SDS-PAGE autoradiography, FIG. 3b lane 13
[3] = target: T1, glutathione-S-transferase (GST) alone, …; assay: GST pull-down, 35S in vitro translated protein, SDS-PAGE autoradiography, FIG. 3c lane 14
Source text: (§1) Lanes 7 to 12 represent the respective pull-down results of the afore-mentioned radioactively labelled in vitro translated proteins by GST-Vif glutathione sepharose beads. […] Lanes 13 to 18 represent the control for the specificity of the GST pulldown experiment, i.e. for the binding specificity of the in vitro translated proteins to Vif. Therefore, lanes 13 to 18 in particular represent the results of GST pull-down, wherein GST was used alone, i.e. without being fused to Vif.
(§2) The binding of interaction candidates to Vif was performed with shaking for one hour at room temperature in binding buffer containing 20 mM NaCl, 20 mMTris pH 8.0, 0.5% NP40 and bovine serum albumine 100 μg/ml. After incubation beads were pelleted by spinning at 500 g for 2 min. and 4 washing steps with 1 ml washing buffer (binding buffer without serum albumin) were followed.

[4] = target: T1, glutathione-S-transferase (GST) alone, …; assay: GST pull-down, 35S in vitro translated protein, SDS-PAGE autoradiography, FIG. 3c lane 15
Source text: as §1, §2

T1 sequence (P08515 whole entry, the tested form may be a part): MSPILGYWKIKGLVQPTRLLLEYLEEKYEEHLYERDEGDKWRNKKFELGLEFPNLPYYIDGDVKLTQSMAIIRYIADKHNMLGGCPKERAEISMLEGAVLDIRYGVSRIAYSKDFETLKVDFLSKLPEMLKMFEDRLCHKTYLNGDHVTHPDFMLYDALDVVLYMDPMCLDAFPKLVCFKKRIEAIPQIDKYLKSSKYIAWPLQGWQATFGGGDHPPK

B1: in vitro translated HERC4 (other, human, UniProt Q5GLZ8 915-1057, looked up)
chain: AFHAGFHKVCGGKVLLLFQPNELQAMVIGNTNYDWKELEKNTEYKGEYWAEHPTIKIFWEVFHELPLEKKKQFLLFLTGSDRIPILGMKSLKLVIQSTGGGEEYLPVSHTCFNLLDLPKYTEKETLRSKLIQAIDHNEGFSLI
binding result [1]: no binding

B2: in vitro translated NUP50 (other)
chain: VLIVCVPNPPIDEKNATMPVTMLIRVKTSEDADELHKILLEKKDA
binding result [2]: no binding

B3: in vitro translated TPT1 (other, human, UniProt P13693 1-172, looked up)
chain: MIIYRDLISHDEMFSDIYKIREIADGLCLEVEGKMVSRTEGNIDDSLIGGNASAEGPEGEGTESTVITGVDIVMNHHLQETSFTKEAYKKYIKDYMKSIKGKLEEQRPERVKPFMTGAAEQIKHILANFKNYQFFIGENMNPDGMVALLDYREDGVTPYMIFFKDGLEMEKC
notes: also called TCTP
binding result [3]: no binding

B4: in vitro translated PTGES3 (other)
chain: RRDYVFIEFCVEDSKDVNVNFEKSKLTFSCLGGSDNFKHLNEIDLFHCIDPNDSKHKRTDRSILCCLRKGESGQSWPRLTKERAKLNWLSVDFNNWKDWEDDSDEDMSNFDRFSEMMNNMGGDEDVDLPEVDGADDDSQDSDDEKMPDLE
binding result [4]: no binding
